Reference: IntAct's records for PubMed 25416956

B1: Keratin, type II cytoskeletal 2 epidermal (Homo sapiens), P35908 (parent)
chain: MSCQISCKSRGRGGGGGGFRGFSSGSAVVSGGSRRSTSSFSCLSRHGGGGGGFGGGGFGSRSLVGLGGTKSISISVAGGGGGFGAAGGFGGRGGGFGGGSSFGGGSGFSGGGFGGGGFGGGRFGGFGGPGGVGGLGGPGGFGPGGYPGGIHEVSVNQSLLQPLNVKVDPEIQNVKAQEREQIKTLNNKFASFIDKVRFLEQQNQVLQTKWELLQQMNVGTRPINLEPIFQGYIDSLKRYLDGLTAERTSQNSELNNMQDLVEDYKKKYEDEINKRTAAENDFVTLKKDVDNAYMIKVELQSKVDLLNQEIEFLKVLYDAEISQIHQSVTDTNVILSMDNSRNLDLDSIIAEVKAQYEEIAQRSKEEAEALYHSKYEELQVTVGRHGDSLKEIKIEISELNRVIQRLQGEIAHVKKQCKNVQDAIADAEQRGEHALKDARNKLNDLEEALQQAKEDLARLLRDYQELMNVKLALDVEIATYRKLLEGEECRMSGDLSSNVTVSVTSSTISSNVASKAAFGGSGGRGSSSGGGYSSGSSSYGSGGRQSGSRGGSGGGGSISGGGYGSGGGSGGRYGSGGGSKGGSISGGGYGSGGGKHSSGGGSRGGSSSGGGYGSGGGGSSSVKGSSGEAFGSSVTFSFR
B2: Proton-coupled zinc antiporter SLC30A8 (Homo sapiens), Q8IWU4 (parent)
chain: MEFLERTYLVNDKAAKMYAFTLESVELQQKPVNKDQCPRERPEELESGGMYHCHSGSKPTEKGANEYAYAKWKLCSASAICFIFMIAEVVGGHIAGSLAVVTDAAHLLIDLTSFLLSLFSLWLSSKPPSKRLTFGWHRAEILGALLSILCIWVVTGVLVYLACERLLYPDYQIQATVMIIVSSCAVAANIVLTVVLHQRCLGHNHKEVQANASVRAAFVHALGDLFQSISVLISALIIYFKPEYKIADPICTFIFSILVLASTITILKDFSILLMEGVPKSLNYSGVKELILAVDGVLSVHSLHIWSLTMNQVILSAHVATAASRDSQVVRREIAKALSKSFTMHSLTIQMESPVDQDPDCLFCEDPCD
partner: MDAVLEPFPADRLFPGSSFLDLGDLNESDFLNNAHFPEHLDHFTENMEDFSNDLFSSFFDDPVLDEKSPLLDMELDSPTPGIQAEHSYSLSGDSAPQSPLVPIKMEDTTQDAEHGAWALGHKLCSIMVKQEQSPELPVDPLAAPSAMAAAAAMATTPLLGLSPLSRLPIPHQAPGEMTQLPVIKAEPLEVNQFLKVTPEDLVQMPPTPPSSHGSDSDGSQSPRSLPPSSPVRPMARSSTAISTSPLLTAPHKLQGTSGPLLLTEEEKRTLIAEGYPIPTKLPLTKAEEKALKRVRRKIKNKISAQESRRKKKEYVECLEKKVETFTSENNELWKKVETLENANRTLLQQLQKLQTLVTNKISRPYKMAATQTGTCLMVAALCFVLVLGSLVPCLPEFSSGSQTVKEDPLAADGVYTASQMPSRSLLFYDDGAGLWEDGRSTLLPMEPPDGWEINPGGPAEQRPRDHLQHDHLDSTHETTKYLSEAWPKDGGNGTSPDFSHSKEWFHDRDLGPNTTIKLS
B3: Keratin, type II cytoskeletal 6A (Homo sapiens), P02538 (parent)
chain: MASTSTTIRSHSSSRRGFSANSARLPGVSRSGFSSVSVSRSRGSGGLGGACGGAGFGSRSLYGLGGSKRISIGGGSCAISGGYGSRAGGSYGFGGAGSGFGFGGGAGIGFGLGGGAGLAGGFGGPGFPVCPPGGIQEVTVNQSLLTPLNLQIDPTIQRVRAEEREQIKTLNNKFASFIDKVRFLEQQNKVLETKWTLLQEQGTKTVRQNLEPLFEQYINNLRRQLDSIVGERGRLDSELRGMQDLVEDFKNKYEDEINKRTAAENEFVTLKKDVDAAYMNKVELQAKADTLTDEINFLRALYDAELSQMQTHISDTSVVLSMDNNRNLDLDSIIAEVKAQYEEIAQRSRAEAESWYQTKYEELQVTAGRHGDDLRNTKQEIAEINRMIQRLRSEIDHVKKQCANLQAAIADAEQRGEMALKDAKNKLEGLEDALQKAKQDLARLLKEYQELMNVKLALDVEIATYRKLLEGEECRLNGEGVGQVNISVVQSTVSSGYGGASGVGSGLGLGGGSSYSYGSGLGVGGGFSSSSGRAIGGGLSSVGGGSSTIKYTTTSSSSRKSYKH
B4: Chorion-specific transcription factor GCMb (Homo sapiens), O75603 (parent)
chain: MPAAAVQEAVGVCSYGMQLSWDINDPQMPQELALFDQFREWPDGYVRFIYSSDEKKAQRHLSGWAMRNTNNHNGHILKKSCLGVVVCTQACTLPDGSRLQLRPAICDKARLKQQKKACPNCHSALELIPCRGHSGYPVTNFWRLDGNAIFFQAKGVHDHPRPESKSETEARRSAIKRQMASFYQPQKKRIRESEAEENQDSSGHFSNIPPLENPEDFDIVTETSFPIPGQPCPSFPKSDVYKATCDLATFQGDKMPPFQKYSSPRIYLPRPPCSYELANPGYTNSSPYPTLYKDSTSIPNDTDWVHLNTLQCNVNSYSSYERSFDFTNKQHGWKPALGKPSLVERTNHGQFQAMATRPYYNPELPCRYLTTPPPGAPALQTVITTTTKVSYQAYQPPAMKYSDSVREVKSLSSCNYAPEDTGMSVYPEPWGPPVTVTRAASPSGPPPMKIAGDCRAIRPTVAIPHEPVSSRTDEAETWDVCLSGLGSAVSYSDRVGPFFTYNNEDF
B5: Zinc finger protein 41 (Homo sapiens), P51814 (parent)
chain: MAANGDSPPWSPALAAEGRGSSCEVRRERTPEARIHSVKRYPDLSPGPKGRSSADHAALNSIVSLQASVSFEDVTVDFSKEEWQHLDPAQRRLYWDVTLENYSHLLSVGYQIPKSEAAFKLEQGEGPWMLEGEAPHQSCSGEAIGKMQQQGIPGGIFFHCERFDQPIGEDSLCSILEELWQDNDQLEQRQENQNNLLSHVKVLIKERGYEHKNIEKIIHVTTKLVPSIKRLHNCDTILKHTLNSHNHNRNSATKNLGKIFGNGNNFPHSPSSTKNENAKTGANSCEHDHYEKHLSHKQAPTHHQKIHPEEKLYVCTECVMGFTQKSHLFEHQRIHAGEKSRECDKSNKVFPQKPQVDVHPSVYTGEKPYLCTQCGKVFTLKSNLITHQKIHTGQKPYKCSECGKAFFQRSDLFRHLRIHTGEKPYECSECGKGFSQNSDLSIHQKTHTGEKHYECNECGKAFTRKSALRMHQRIHTGEKPYVCADCGKAFIQKSHFNTHQRIHTGEKPYECSDCGKSFTKKSQLHVHQRIHTGEKPYICTECGKVFTHRTNLTTHQKTHTGEKPYMCAECGKAFTDQSNLIKHQKTHTGEKPYKCNGCGKAFIWKSRLKIHQKSHIGERHYECKDCGKAFIQKSTLSVHQRIHTGEKPYVCPECGKAFIQKSHFIAHHRIHTGEKPYECSDCGKCFTKKSQLRVHQKIHTGEKPNICAECGKAFTDRSNLITHQKIHTREKPYECGDCGKTFTWKSRLNIHQKSHTGERHYECSKCGKAFIQKATLSMHQIIHTGKKPYACTECQKAFTDRSNLIKHQKMHSGEKRYKASD
B6: Chorion-specific transcription factor GCMb (Homo sapiens), O75603 (parent)
chain: B4 chain
partner: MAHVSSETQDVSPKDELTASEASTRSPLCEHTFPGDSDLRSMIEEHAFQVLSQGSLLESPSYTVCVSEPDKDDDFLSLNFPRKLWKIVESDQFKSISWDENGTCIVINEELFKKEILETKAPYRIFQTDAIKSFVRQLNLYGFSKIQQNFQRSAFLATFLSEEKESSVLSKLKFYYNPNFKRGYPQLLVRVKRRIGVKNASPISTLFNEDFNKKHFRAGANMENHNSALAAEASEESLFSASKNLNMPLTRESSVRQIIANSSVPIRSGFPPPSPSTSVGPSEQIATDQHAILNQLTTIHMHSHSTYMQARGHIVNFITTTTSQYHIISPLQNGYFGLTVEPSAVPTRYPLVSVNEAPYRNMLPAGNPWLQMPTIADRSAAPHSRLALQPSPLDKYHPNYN

Variants of: B1
Details: with KRT19, P08727
Sequence of KRT19, P08727 (P08727 whole entry): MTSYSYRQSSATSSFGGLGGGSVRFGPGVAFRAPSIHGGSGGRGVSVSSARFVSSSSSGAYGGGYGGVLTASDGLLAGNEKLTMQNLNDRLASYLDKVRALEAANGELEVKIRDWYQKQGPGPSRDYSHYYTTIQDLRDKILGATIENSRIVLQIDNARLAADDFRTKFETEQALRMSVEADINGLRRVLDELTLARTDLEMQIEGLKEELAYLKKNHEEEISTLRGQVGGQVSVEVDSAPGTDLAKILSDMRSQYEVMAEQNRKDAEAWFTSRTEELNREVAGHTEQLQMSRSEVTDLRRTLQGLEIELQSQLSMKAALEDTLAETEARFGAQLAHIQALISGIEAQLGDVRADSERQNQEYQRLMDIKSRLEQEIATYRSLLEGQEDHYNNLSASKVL

Which “effect of a mutation on the interaction” value does the source give for I477N here?
Its value is “disrupting interaction”.

Variants of: B2
Details: with cr3l1_human CREB3L1, Q96BA8

Which “effect of a mutation on the interaction” value does the source give for E276W here?
Its value is “disrupting interaction”.

Variants of: B3
Details: with tfp11_human TFIP11, Q9UBB9
Sequence of tfp11_human TFIP11, Q9UBB9 (Q9UBB9 whole entry): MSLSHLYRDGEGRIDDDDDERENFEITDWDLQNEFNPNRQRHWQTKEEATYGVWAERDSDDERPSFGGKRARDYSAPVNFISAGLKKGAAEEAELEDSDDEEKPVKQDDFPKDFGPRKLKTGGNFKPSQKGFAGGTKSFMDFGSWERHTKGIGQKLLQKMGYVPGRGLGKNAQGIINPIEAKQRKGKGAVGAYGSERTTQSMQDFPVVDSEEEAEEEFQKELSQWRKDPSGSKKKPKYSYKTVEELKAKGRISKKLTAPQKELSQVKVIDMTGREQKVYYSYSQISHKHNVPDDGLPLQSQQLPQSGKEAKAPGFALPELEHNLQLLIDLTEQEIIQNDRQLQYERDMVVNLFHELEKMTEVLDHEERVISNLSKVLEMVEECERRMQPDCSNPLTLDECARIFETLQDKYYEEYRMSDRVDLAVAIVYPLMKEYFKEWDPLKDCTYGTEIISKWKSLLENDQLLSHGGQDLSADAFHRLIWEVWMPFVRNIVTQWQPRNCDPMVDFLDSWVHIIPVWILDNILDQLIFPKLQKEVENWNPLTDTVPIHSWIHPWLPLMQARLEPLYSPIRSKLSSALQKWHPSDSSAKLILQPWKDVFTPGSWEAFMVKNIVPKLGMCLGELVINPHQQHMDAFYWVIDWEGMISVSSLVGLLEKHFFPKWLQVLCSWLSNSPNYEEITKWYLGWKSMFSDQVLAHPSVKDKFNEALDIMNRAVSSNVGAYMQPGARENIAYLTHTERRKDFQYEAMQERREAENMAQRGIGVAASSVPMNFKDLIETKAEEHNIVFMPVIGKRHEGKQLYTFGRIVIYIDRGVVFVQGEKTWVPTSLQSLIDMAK

A463P was tested. Which “effect of a mutation on the interaction” value did it give?
Its value is “disrupting interaction”.

Variants of: B3
Details: with tfp11_human TFIP11, Q9UBB9
Remark: another data set of the same source

I462S was tested. Which “effect of a mutation on the interaction” value did it give?
The value was “disrupting interaction”.

Variants of: B4
Details: with rbpms_human RBPMS

With G63S as the variant, how does the “effect of a mutation on the interaction” value read?
Its value is “disrupting interaction”.

Variants of: B5
Details: with fam9b_human FAM9B

Which “effect of a mutation on the interaction” value does the source give for Q111L here?
Its value is “disrupting interaction”.

Variants of: B6
Details: with hsfy1_human HSFY1, Q96LI6

R47L was tested. Which “effect of a mutation on the interaction” value did it give?
The value was “disrupting interaction”.

Variants of: B6
Details: with hsfy1_human HSFY1, Q96LI6
Remark: another data set of the same source

G63S was tested. Which “effect of a mutation on the interaction” value did it give?
The value was “disrupting interaction”.
